Laboratory results published in publication PMC4116151 (Biochemistry, 2014).

Experiments:
YdiI [1] = biological target: T1, YdiI (Escherichia coli, UniProt P77781); experiment: steady-state inhibition of 4-hydroxybenzoyl-CoA hydrolysis, direct […] nm assay; assay type: biochemical
T1 sequence (P77781 1-136): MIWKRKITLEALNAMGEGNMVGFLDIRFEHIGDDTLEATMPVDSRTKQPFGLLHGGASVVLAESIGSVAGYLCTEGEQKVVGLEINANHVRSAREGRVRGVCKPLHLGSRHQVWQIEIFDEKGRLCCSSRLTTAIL

YbdB [2] = biological target: T2, YbdB (Escherichia coli, UniProt P0A8Y8); experiment: as above; assay type: biochemical
T2 sequence (P0A8Y8 1-137): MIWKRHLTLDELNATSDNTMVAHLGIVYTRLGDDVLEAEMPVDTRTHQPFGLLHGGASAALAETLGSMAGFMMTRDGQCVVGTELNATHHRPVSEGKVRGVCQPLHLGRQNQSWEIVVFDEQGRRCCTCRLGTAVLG

YdiI [3] = biological target: T1, YdiI; experiment: steady-state inhibition of thioester hydrolysis, DTNB coupled assay; assay type: biochemical
YbdB [4] = biological target: T2, YbdB; experiment: as above; assay type: biochemical
YdiI [5] = biological target: T1, YdiI; experiment: steady-state kinetics, DTNB coupled assay at […] nm; assay type: biochemical; conditions: pH 7.5, 25 °C; 50 mM K+HEPES, 1 mM DTNB
YbdB [6] = biological target: T3, YbdB (Escherichia coli, UniProt P0A8Y8, M68V); experiment: steady-state kinetics, DTNB coupled assay at […] nm; assay type: biochemical; conditions: pH 7.5, 25 °C; 50 mM K+HEPES, 1 mM DTNB
T3 sequence (P0A8Y8 1-137 M68V): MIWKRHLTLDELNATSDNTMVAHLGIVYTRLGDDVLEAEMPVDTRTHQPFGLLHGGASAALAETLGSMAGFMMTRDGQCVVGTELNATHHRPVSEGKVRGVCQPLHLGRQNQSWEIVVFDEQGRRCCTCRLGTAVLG

purified protein = substrate: CC(C)(COP(=O)(O)OP(=O)(O)OC[C@H]1O[C@@H](n2cnc3c(N)ncnc32)[C@H](O)[C@@H]1OP(=O)(O)O)[C@@H](O)C(=O)NCCC(=O)NCCSC(=O)c1ccccc1; experiment: purified protein; conditions: pH 7.5, 25 °C, 50 mM K+HEPES, 1 mM DTNB

Question: Which Ki (YdiI [1]) does the source give for `CC(C)(COP(=O)(O)OP(=O)(O)OC[C@H]1O[C@@H](n2cnc3c(N)ncnc32)[C@H](O)[C@@H]1OP(=O)(O)O)[C@@H](O)C(=O)NCCC(=O)NCCS` [compound 4, CoA] here?
Answer: 16 ± 1 µM

Question: What about the Ki (YbdB [2]) of the same molecule?
Answer: 210 ± 10 µM

Question: Which results are given for `CC(C)(COP(=O)(O)OP(=O)(O)OC[C@H]1O[C@@H](n2cnc3c(N)ncnc32)[C@H](O)[C@@H]1OP(=O)(O)O)[C@@H](O)C(=O)NCCC(=O)NCCSCC(=O)c1ccccc1` [phenacyl-CoA]?
Answer: Ki (YdiI [3]): 7.8 ± 0.4 µM; Ki (YbdB [4]): 65 ± 6 µM

Question: What does the source list for `CC(C)(COP(=O)(O)OP(=O)(O)OC[C@H]1O[C@@H](n2cnc3c(N)ncnc32)[C@H](O)[C@@H]1OP(=O)(O)O)[C@@H](O)C(=O)NCCC(=O)NCCSC(=O)c1ccccc1` [compound 3, benzoyl-CoA]?
Answer: Km (YdiI [5]): 25 ± 3 µM; Km (YbdB [6]): 24 ± 2 µM

Question: Which results are given for `CC(C)(COP(=O)(O)OP(=O)(O)OC[C@H]1O[C@@H](n2cnc3c(N)ncnc32)[C@H](O)[C@@H]1OP(=O)(O)O)[C@@H](O)C(=O)NCCC(=O)NCCSCC(=O)c1ccc(O)cc1O` [compound 5, 2,4-DHP-CoA]?
Answer: Ki (YdiI [3]): 2.5 ± 0.2 µM; Ki (YbdB [4]): 5.9 ± 6 µM

Question: `CCCCCCCCCC(=O)CSCCNC(=O)CCNC(=O)[C@H](O)C(C)(C)COP(=O)(O)OP(=O)(O)OC[C@H]1O[C@@H](n2cnc3c(N)ncnc32)[C@H](O)[C@@H]1OP(=O)(O)O` [compound 6, UDO-CoA] was tested. Which Ki (YdiI [3]) did it give?
Answer: 12.2 ± 0.5 µM

B1: YbdB (Escherichia coli K-12) (protein)
chain: MIWKRHLTLDELNATSDNTMVAHLGIVYTRLGDDVLEAEMPVDTRTHQPFGLLHGGASAALAETLGSMAGFMMTRDGQCVVGTELNATHHRPVSEGKVRGVCQPLHLGRQNQSWEIVVFDEQGRRCCTCRLGTAVLG
Question: B1 was tested. Which Km (purified protein) did it give?
Answer: 12 ± 1 µM

B2: YdiI (Escherichia coli K-12; S64A) (protein)
chain: MIWKRKITLEALNAMGEGNMVGFLDIRFEHIGDDTLEATMPVDSRTKQPFGLLHGGASVVLAEAIGSVAGYLCTEGEQKVVGLEINANHVRSAREGRVRGVCKPLHLGSRHQVWQIEIFDEKGRLCCSSRLTTAIL
Question: B2 was tested. Which Km (purified protein) did it give?
Answer: 11.9 ± 0.9 µM

B3: YdiI (Escherichia coli K-12; H54A) (protein)
chain: MIWKRKITLEALNAMGEGNMVGFLDIRFEHIGDDTLEATMPVDSRTKQPFGLLAGGASVVLAESIGSVAGYLCTEGEQKVVGLEINANHVRSAREGRVRGVCKPLHLGSRHQVWQIEIFDEKGRLCCSSRLTTAIL
Question: Which Km (purified protein) does the source give for B3 here?
Answer: 100 ± 8 µM

B4: YdiI (Escherichia coli K-12; Q48N) (protein)
chain: MIWKRKITLEALNAMGEGNMVGFLDIRFEHIGDDTLEATMPVDSRTKNPFGLLHGGASVVLAESIGSVAGYLCTEGEQKVVGLEINANHVRSAREGRVRGVCKPLHLGSRHQVWQIEIFDEKGRLCCSSRLTTAIL
Question: For B4, which Km (purified protein) is on record?
Answer: 12.6 ± 0.8 µM

B5: YdiI (Escherichia coli K-12; S67A) (protein)
chain: MIWKRKITLEALNAMGEGNMVGFLDIRFEHIGDDTLEATMPVDSRTKQPFGLLHGGASVVLAESIGAVAGYLCTEGEQKVVGLEINANHVRSAREGRVRGVCKPLHLGSRHQVWQIEIFDEKGRLCCSSRLTTAIL
Question: For B5, which Km (purified protein) is on record?
Answer: 12.6 ± 0.2 µM

B6: YdiI (Escherichia coli K-12; H54F) (protein)
chain: MIWKRKITLEALNAMGEGNMVGFLDIRFEHIGDDTLEATMPVDSRTKQPFGLLFGGASVVLAESIGSVAGYLCTEGEQKVVGLEINANHVRSAREGRVRGVCKPLHLGSRHQVWQIEIFDEKGRLCCSSRLTTAIL
Question: Which Km (purified protein) does the source give for B6 here?
Answer: 16.8 ± 0.9 µM

B7: YdiI (Escherichia coli K-12; R91A) (protein)
chain: MIWKRKITLEALNAMGEGNMVGFLDIRFEHIGDDTLEATMPVDSRTKQPFGLLHGGASVVLAESIGSVAGYLCTEGEQKVVGLEINANHVASAREGRVRGVCKPLHLGSRHQVWQIEIFDEKGRLCCSSRLTTAIL
Question: How did the Km (purified protein) turn out when B7 was run?
Answer: 23 ± 3 µM

B8: YdiI (Escherichia coli K-12; H89A) (protein)
chain: MIWKRKITLEALNAMGEGNMVGFLDIRFEHIGDDTLEATMPVDSRTKQPFGLLHGGASVVLAESIGSVAGYLCTEGEQKVVGLEINANAVRSAREGRVRGVCKPLHLGSRHQVWQIEIFDEKGRLCCSSRLTTAIL
Question: B8 was tested. Which Km (purified protein) did it give?
Answer: 180 ± 10 µM

B9: YdiI (Escherichia coli K-12; E63D) (protein)
chain: MIWKRKITLEALNAMGEGNMVGFLDIRFEHIGDDTLEATMPVDSRTKQPFGLLHGGASVVLADSIGSVAGYLCTEGEQKVVGLEINANHVRSAREGRVRGVCKPLHLGSRHQVWQIEIFDEKGRLCCSSRLTTAIL
Question: For B9, which Km (purified protein) is on record?
Answer: 120 ± 10 µM

B10: YdiI (Escherichia coli K-12; S109A) (protein)
chain: MIWKRKITLEALNAMGEGNMVGFLDIRFEHIGDDTLEATMPVDSRTKQPFGLLHGGASVVLAESIGSVAGYLCTEGEQKVVGLEINANHVRSAREGRVRGVCKPLHLGARHQVWQIEIFDEKGRLCCSSRLTTAIL
Question: B10 was tested. Which Km (purified protein) did it give?
Answer: 14.2 ± 0.2 µM
